{"source": "paper PMC8276696", "about": "(2021)", "binders": {"B1": {"name": "CV30 IgG (antibody, V domains shown)", "VH": "QVQLVESGGGLIQPGGSLRLSCAASGVIVSSNYMSWVRQAPGKGLEWVSVIYSGGSTYYADSVKGRFTISRDNSKNTLYLQMNSLRAEDTAVYYCARDLDVSGGMDVWGQGTTVTVSS", "VL": "not shown"}}, "biological_target": "wild-type monomeric SARS-CoV-2 S receptor-binding domain (RBD) (SARS-CoV-2 (Wuhan-Hu-1), UniProt P0DTC2)", "experiment": "BLI", "data": [{"binder": "B1", "values": [{"measurement": "Kd", "result": 8.8, "unit": "nM"}]}]}
